{"source": "patent US20120107320A1", "about": "(UNIVERSITY COURT OF THE UNIVERSITY OF ABERDEEN, published 2012)", "target": "T1, human soluble CTLA-4 (sCTLA-4), natural soluble form (human, UniProt P16410-5 36-174, limits assumed)", "T1 construct": "also called natural soluble CTLA-4; soluble form of cytotoxic T-lymphocyte antigen 4", "T1 sequence (looked up)": "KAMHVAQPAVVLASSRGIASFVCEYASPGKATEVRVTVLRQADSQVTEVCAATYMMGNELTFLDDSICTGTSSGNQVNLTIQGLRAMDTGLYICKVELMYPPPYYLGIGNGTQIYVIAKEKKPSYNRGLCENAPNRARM", "assay": "sandwich ELISA, capture with pan-specific mAb BNI3, detection with biotinylated JMW-3B3", "source_text": "FIG. 7. Anti-sCTLA-4 JMW-3B3 distinguishes, in sera and culture supernatant, true natural soluble CTLA-4 from extracellular membrane-bound CTLA-4 (mCTLA-4). The extracellular portion of mCTLA-4 is encoded by exon 2 and is identical in sCTLA-4, mCTLA-4 and the recombinant soluble form of CTLA-4, CTLA4-Ig. […] Pan-specific anti-CTLA-4 mAb (clone BNI3) was used as the capture antibody."}
{"binder": "monoclonal anti-sCTLA-4 antibody JMW-3B3 (antibody, mouse IgG1, V domains shown, It was biotinylated for detection in the sandwich ELISAs; also called mAb JMW-3B3; anti-sCTLA-4 mAb) VH: EVKLVNSGGGLVQPGNSLRLSCATSGFTFTDFYMSWVRQPPGKALEWLGFVRNRANGYTTEYSVSVKGRFIISRDNFQSTLFLQMNTLRAEDSGTYYCVRGPGDTADYTMDYWGQGTSVTVSS VL: QAVVTQESAFTTSPGGTVILTCRSSTGAVTTNNYANWVQEKPDHLFTGLIGGTSNRAPGVPVRFSGSLIGDKAALTITGAQTEDDGMYFCALWYTTHFVFGGGTKVT", "values": [{"measurement": "binding result", "value": "binds"}]}
